Experimental data published in patent US20060177449A1.

Columns and labels:
[1] = target: monoclonal antibody 23L-1Na; assay: competitive EIA: unlabeled ligand varied against HRP-labeled [Cys^19-NH2] rat TGR23-2 ligand (1-19) for 23L-1Na (FIG. 5)
[2] = target: monoclonal antibody 23L-1Ca; assay: competitive EIA: unlabeled ligand varied against HRP-labeled [Cys^19-NH2] rat TGR23-2 ligand (1-19) for 23L-1Ca (FIG. 6)
[3] = target: monoclonal antibody 23L-2Ca; assay: competitive EIA: unlabeled ligand varied against HRP-labeled [Cys^19-NH2] rat TGR23-2 ligand (1-19) for 23L-2Ca (FIG. 7)

Binder	IC50 [1] [nM]	IC50 [2] [nM]	IC50 [3] [nM]
SFRNGVGTGMKKTSFQRAKS [human TGR23-2 ligand]	60	–	–
SFRNGVGSGVKKTSFRRA [rat TGR23-2 ligand]	100	20	20
SFRNGVGSGAKKTSFRRAKQ [mouse TGR23-2 ligand]	60	–	40
